Literature values in PMC8193598.
Where “and” joins values, the source holds several entries; their conditions need not be identical. Equal entries are not always repeated. Where two headings read alike, the source gives them in different places.

How the values were obtained:
[1] = biological target: spike protein (SARS-CoV-2) (UniProt P0DTC2)
[2] = biological target: spike protein (SARS-CoV-2) (UniProt P0DTC2); remark: listed apart in the source
[3] = biological target: SARS-CoV-2 S1 CendR peptide CendR peptide (SARS-CoV-2) (UniProt P0DTC2)

Chain of ASGR1 (P07306 whole entry): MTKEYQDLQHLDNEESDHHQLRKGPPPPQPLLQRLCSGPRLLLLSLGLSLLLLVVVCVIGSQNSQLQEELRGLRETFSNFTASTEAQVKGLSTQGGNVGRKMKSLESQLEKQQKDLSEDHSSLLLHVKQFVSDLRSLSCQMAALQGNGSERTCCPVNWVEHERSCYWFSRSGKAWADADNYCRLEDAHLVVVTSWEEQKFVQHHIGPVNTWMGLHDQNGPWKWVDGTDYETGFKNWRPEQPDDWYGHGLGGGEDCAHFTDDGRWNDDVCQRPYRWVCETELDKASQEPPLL
Chain of KREMEN1 (Q96MU8 20-392): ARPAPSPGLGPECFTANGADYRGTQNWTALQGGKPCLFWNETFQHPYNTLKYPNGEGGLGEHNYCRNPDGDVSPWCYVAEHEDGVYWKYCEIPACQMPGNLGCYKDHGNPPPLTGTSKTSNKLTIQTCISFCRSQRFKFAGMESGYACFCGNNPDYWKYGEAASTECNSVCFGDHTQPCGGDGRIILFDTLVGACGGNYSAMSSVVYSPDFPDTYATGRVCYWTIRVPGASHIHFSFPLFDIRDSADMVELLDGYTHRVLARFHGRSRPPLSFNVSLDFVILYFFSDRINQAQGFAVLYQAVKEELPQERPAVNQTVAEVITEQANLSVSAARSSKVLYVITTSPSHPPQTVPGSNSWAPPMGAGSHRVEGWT

**Q.** With KREMEN1 (from UniProt Q96MU8) as the substance, how does the Kd [1] read?
**A.** 0.0193 µM

**Q.** For ASGR1 (from UniProt P07306), which Kd [2] is on record?
**A.** 0.0948 µM

**Q.** For “neuropilin-1 coagulation factor domain (from UniProt O14786)”, which Kd [3] is on record?
**A.** 20.3 µM and 13 µM
